Laboratory results published in the supplement of paper PMC9233669.
This sample holds only a part of the variants without activity.

Columns and labels:
biotinyl-Phe-oxazolone = assay: self-aminoacylation, catalytic enhancement (BFO) (fold over background); higher = more active; k-Seq, kA / k0A0; sequences stand for … in GGGAAUGGAUCCACAUCUACGAAUUC…UUCACUGCAGACUUGACGAAGCUG
In short: (§1)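 Each biotinyl-aminoacyl-oxazolone, at 2–1250 μM, was incubated with mutagenized RNA pools (0.43 μM) carrying a 21-nt variable region. The 50 μL reactions contained HEPES/NaCl/KCl/MgCl2/CaCl2 buffer with 5% acetonitrile at pH 6.9–7.0 and ran for 90 minutes at room temperature. After streptavidin capture, RNA was measured by qPCR in triplicate and by Illumina sequencing, and catalytic enhancement was calculated as median kA over the uncatalyzed rate from a pseudo-first-order fit of per-sequence fraction reacted.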

biotinyl-Trp-oxazolone = assay: self-aminoacylation, catalytic enhancement (BWO) (fold over background); higher = more active; k-Seq, kA / k0A0; sequences stand for … in GGGAAUGGAUCCACAUCUACGAAUUC…UUCACUGCAGACUUGACGAAGCUG
In short: as §1

biotinyl-Ile-oxazolone = assay: self-aminoacylation, catalytic enhancement (BIO) (fold over background); higher = more active; k-Seq, kA / k0A0; sequences stand for … in GGGAAUGGAUCCACAUCUACGAAUUC…UUCACUGCAGACUUGACGAAGCUG
In short: as §1

biotinyl-Leu-oxazolone = assay: self-aminoacylation, catalytic enhancement (BLO) (fold over background); higher = more active; k-Seq, kA / k0A0; sequences stand for … in GGGAAUGGAUCCACAUCUACGAAUUC…UUCACUGCAGACUUGACGAAGCUG
In short: as §1

biotinyl-Met-oxazolone = assay: self-aminoacylation, catalytic enhancement (BMO) (fold over background); higher = more active; k-Seq, kA / k0A0; sequences stand for … in GGGAAUGGAUCCACAUCUACGAAUUC…UUCACUGCAGACUUGACGAAGCUG
In short: as §1

biotinyl-Val-oxazolone = assay: self-aminoacylation, catalytic enhancement (BVO) (fold over background); higher = more active; k-Seq, kA / k0A0; sequences stand for … in GGGAAUGGAUCCACAUCUACGAAUUC…UUCACUGCAGACUUGACGAAGCUG
In short: as §1

| Sequence | self-aminoacylation (biotinyl-Phe-oxazolone) | self-aminoacylation (biotinyl-Trp-oxazolone) | self-aminoacylation (biotinyl-Ile-oxazolone) | self-aminoacylation (biotinyl-Leu-oxazolone) | self-aminoacylation (biotinyl-Met-oxazolone) | self-aminoacylation (biotinyl-Val-oxazolone) |
| --- | --- | --- | --- | --- | --- | --- |
| AAGUUUGCUAAUAGUCACUAG [Fam3.1 aminoacylation ribozyme variant] | 1.1 | 1.13 | 1.08 | 0.836 | 0.981 | 0.939 |
| AAGUUUGCUAAUAGUCCCGAG [Fam3.1 aminoacylation ribozyme variant] | 1.54 | 2.65 | 1.22 | 1.31 | 1.28 | 1.27 |
| AAGUUUGCUAAUAGUCGAAUG [Fam3.1 aminoacylation ribozyme variant] | 1.48 | 1.17 | 1.09 | 0.88 | 1.17 | 0.903 |
| AAGUUUGCUAAUAGUCGCAGC [Fam3.1 aminoacylation ribozyme variant] | 1.11 | 1.99 | 1.17 | 0.821 | 0.956 | 0.913 |
| AAGUUUGCUAAUAGUCGCCAG [Fam3.1 aminoacylation ribozyme variant] | 1.41 | 1.39 | 1.02 | 0.962 | 1.03 | 0.997 |
| AAGUUUGCUAAUAGUCGCCCG [Fam3.1 aminoacylation ribozyme variant] | 9.34 | 3.76 | 3.76 | 3.87 | 2.98 | 2.69 |
| AAGUUUGCUAAUAGUCGCCGG [Fam3.1 aminoacylation ribozyme variant] | 10.5 | 5.77 | 3.08 | 3.53 | 5.01 | 4.14 |
| AAGUUUGCUAAUAGUCGCUAC [Fam3.1 aminoacylation ribozyme variant] | 0.82 | 0.666 | 0.54 | 0.476 | 0.57 | 0.697 |
| AAGUUUGCUAAUAGUCGGAAG [Fam3.1 aminoacylation ribozyme variant] | 14.8 | 4.58 | 1.13 | 0.934 | 1.16 | 1.03 |
| AAGUUUGCUAAUAGUCGUAAA [Fam3.1 aminoacylation ribozyme variant] | 2.23 | 1.01 | 0.909 | 0.826 | 0.973 | 1.04 |
| AAGUUUGCUAAUAGUCGUAAC [Fam3.1 aminoacylation ribozyme variant] | 1.02 | 0.778 | 0.726 | 0.68 | 0.658 | 0.822 |
| AAGUUUGCUAAUAGUCGUCAG [Fam3.1 aminoacylation ribozyme variant] | 2.16 | 1.26 | 0.795 | 0.715 | 0.638 | 0.905 |
| AAGUUUGCUAAUAGUCGUGAG [Fam3.1 aminoacylation ribozyme variant] | 2.86 | 2.15 | 1.19 | 1.13 | 1.31 | 1.04 |
| AAGUUUGCUAAUAGUCUCGAG [Fam3.1 aminoacylation ribozyme variant] | 2.01 | 1.96 | 1.06 | 1.14 | 1.02 | 0.95 |
| AAGUUUGCUAAUAGUGGCAAA [Fam3.1 aminoacylation ribozyme variant] | 0.91 | 1.24 | 1.09 | 0.789 | 0.891 | 1.04 |
| AAGUUUGCUAAUAGUGGCAAG [Fam3.1 aminoacylation ribozyme variant] | 0.894 | 0.773 | 0.737 | 0.692 | 0.734 | 0.739 |
| AAGUUUGCUAAUAGUUGGAAG [Fam3.1 aminoacylation ribozyme variant] | 1.47 | 0.896 | 1.29 | 1.21 | 1.38 | 1.25 |
| AAGUUUGCUAAUAUUAGCAAG [Fam3.1 aminoacylation ribozyme variant] | 1.2 | 1.3 | 1.28 | 1.08 | 1.32 | 1.24 |
| AAGUUUGCUAAUAUUCGCAAC [Fam3.1 aminoacylation ribozyme variant] | 0.972 | 2.36 | 1.15 | 1.11 | 1.22 | 1.17 |
| AAGUUUGCUAAUAUUCGCAGG [Fam3.1 aminoacylation ribozyme variant] | 1.32 | 2.04 | 1.35 | 1.4 | 1.68 | 1.31 |
| AAGUUUGCUAAUAUUCGCAUG [Fam3.1 aminoacylation ribozyme variant] | 1.47 | 0.844 | 1.14 | 1.08 | 1.19 | 1.19 |
